Test results taken from publication PMC6372068 (Nature, 2018).
Values belong to the molecule of their own block, whether it stands above or below them.

Legend:
[1] = target: fatty acid synthase (FAS) α subunit, C-terminally fused to GFP (S. cerevisiae) (UniProt P19097); assay: co-IP
[2] = target: T1, fatty acid synthase (FAS) β subunit, C-terminally fused to GFP (S. cerevisiae, UniProt P07149 1-2051); assay: selective ribosome profiling
[3] = target: T1, fatty acid synthase (FAS) β subunit, …; assay: co-IP
[4] = target: T2, methionyl-tRNA synthetase MetRS, C-terminally fused to GFP (S. cerevisiae, UniProt P00958 1-751); assay: selective ribosome profiling
T2 sequence: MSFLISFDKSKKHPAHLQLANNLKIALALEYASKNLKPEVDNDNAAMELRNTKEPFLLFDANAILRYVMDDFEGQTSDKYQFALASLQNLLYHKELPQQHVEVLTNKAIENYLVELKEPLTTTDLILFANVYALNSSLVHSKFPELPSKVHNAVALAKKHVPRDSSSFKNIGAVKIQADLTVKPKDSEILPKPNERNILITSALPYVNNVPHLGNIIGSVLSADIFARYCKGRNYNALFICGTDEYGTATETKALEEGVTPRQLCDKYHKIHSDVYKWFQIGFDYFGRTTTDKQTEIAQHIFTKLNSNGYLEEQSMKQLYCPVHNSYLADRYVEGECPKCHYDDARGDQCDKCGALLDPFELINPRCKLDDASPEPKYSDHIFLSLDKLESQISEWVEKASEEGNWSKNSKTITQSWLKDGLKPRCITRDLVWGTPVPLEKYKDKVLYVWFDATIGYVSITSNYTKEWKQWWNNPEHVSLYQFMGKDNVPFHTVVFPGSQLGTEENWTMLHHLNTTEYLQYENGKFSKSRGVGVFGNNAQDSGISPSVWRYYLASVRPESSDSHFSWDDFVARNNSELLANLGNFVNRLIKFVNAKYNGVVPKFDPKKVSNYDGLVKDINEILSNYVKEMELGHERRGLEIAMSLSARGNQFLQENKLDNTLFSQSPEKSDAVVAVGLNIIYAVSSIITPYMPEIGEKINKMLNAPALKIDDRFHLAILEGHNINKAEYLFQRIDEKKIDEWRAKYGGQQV

T1 sequence (P07149 whole entry, the tested form may be a part): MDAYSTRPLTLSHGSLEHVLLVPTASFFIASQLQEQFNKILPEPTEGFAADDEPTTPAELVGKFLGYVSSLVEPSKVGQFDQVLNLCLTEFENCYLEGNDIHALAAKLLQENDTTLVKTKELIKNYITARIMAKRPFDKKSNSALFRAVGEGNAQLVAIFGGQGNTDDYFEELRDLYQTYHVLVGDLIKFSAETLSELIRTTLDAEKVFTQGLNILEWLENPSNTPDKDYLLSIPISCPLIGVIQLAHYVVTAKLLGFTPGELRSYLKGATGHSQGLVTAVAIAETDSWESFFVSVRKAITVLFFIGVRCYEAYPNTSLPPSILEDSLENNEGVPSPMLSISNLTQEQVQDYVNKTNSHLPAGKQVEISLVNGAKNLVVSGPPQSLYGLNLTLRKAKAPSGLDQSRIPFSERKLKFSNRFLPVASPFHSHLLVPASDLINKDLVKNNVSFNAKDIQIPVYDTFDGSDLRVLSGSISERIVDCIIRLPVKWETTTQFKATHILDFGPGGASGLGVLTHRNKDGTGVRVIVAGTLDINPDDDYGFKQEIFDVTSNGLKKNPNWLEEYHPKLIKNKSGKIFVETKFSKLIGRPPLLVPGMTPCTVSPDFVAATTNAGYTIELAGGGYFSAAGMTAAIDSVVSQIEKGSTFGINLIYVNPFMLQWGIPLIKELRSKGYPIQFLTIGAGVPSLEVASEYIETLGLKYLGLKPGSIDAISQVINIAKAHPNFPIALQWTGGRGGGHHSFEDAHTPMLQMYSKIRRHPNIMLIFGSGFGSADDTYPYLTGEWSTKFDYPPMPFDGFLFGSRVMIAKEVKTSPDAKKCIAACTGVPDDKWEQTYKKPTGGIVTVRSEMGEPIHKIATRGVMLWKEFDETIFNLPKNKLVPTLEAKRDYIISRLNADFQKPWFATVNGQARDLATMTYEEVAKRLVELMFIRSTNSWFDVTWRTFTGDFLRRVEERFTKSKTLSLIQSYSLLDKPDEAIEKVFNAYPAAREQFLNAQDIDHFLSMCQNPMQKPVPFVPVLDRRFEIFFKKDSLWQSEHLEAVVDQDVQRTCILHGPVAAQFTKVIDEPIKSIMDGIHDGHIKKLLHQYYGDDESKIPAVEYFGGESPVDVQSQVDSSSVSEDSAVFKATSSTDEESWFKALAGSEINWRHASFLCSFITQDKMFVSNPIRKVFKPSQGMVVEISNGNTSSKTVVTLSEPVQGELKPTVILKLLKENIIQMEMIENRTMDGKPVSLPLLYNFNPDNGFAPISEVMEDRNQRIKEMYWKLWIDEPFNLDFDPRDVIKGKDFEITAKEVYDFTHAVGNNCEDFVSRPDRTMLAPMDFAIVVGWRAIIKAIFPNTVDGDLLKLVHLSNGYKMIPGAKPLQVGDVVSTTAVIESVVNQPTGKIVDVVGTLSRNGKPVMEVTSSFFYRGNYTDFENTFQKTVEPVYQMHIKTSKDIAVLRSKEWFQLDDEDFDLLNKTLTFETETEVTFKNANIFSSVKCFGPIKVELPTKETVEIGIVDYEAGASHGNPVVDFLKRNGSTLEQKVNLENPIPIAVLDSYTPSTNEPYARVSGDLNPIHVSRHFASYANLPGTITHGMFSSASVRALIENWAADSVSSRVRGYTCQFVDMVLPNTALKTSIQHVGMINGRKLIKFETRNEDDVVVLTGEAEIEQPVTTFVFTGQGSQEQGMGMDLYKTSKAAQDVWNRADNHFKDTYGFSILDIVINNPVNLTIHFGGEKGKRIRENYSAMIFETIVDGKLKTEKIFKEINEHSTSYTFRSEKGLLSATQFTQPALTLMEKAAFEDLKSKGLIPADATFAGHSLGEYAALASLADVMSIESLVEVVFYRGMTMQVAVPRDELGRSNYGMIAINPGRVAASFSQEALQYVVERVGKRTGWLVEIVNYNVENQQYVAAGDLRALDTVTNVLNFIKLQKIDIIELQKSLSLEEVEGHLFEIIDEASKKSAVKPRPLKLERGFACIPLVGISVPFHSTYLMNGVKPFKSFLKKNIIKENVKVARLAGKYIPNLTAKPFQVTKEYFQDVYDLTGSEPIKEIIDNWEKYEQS

stoichiometry N [1]: 1
Molecule: FAS β subunit, untagged, of the mature FAS, P07149 1-2051

fold enrichment of selected footprints over total ribosome-protected footprints [2]: ~40 fold
B1: nascent FAS α subunit (ribosome-nascent chain complexes) (natural protein)
chain: MKPEVEQELAHILLTELLAYQFASPVRWIETQDVFLKDFNTERVVEIGPSPTLAGMAQRTLKNKYESYDAALSLHREILCYSKDAKEIYYTPDPSELAAKEEPAKEEAPAPTPAASAPAPAAAAPAPVAAAAPAAAAAEIADEPVKASLLLHVLVAHKLKKSLDSIPMSKTIKDLVGGKSTVQNEILGDLGKEFGTTPEKPEETPLEELAETFQDTFSGALGKQSSSLLSRLISSKMPGGFTITVARKYLQTRWGLPSGRQDGVLLVALSNEPAARLGSEADAKAFLDSMAQKYASIVGVDLSSAASASGAAGAGAAAGAAMIDAGALEEITKDHKVLARQQLQVLARYLKMDLDNGERKFLKEKDTVAELQAQLDYLNAELGEFFVNGVATSFSRKKARTFDSSWNWAKQSLLSLYFEIIHGVLKNVDREVVSEAINIMNRSNDALIKFMEYHISNTDETKGENYQLVKTLGEQLIENCKQVLDVDPVYKDVAKPTGPKTAIDKNGNITYSEEPREKVRKLSQYVQEMALGGPITKESQPTIEEDLTRVYKAISAQADKQDISSSTRVEFEKLYSDLMKFLESSKEIDPSQTTQLAGMDVEDALDKDSTKEVASLPNKSTISKTVSSTIPRETIPFLHLRKKTPAGDWKYDRQLSSLFLDGLEKAAFNGVTFKDKYVLITGAGKGSIGAEVLQGLLQGGAKVVVTTSRFSKQVTDYYQSIYAKYGAKGSTLIVVPFNQGSKQDVEALIEFIYDTEKNGGLGWDLDAIIPFAAIPEQGIELEHIDSKSEFAHRIMLTNILRMMGCVKKQKSARGIETRPAQVILPMSPNHGTFGGDGMYSESKLSLETLFNRWHSESWANQLTVCGAIIGWTRGTGLMSANNIIAEGIEKMGVRTFSQKEMAFNLLGLLTPEVVELCQKSPVMADLNGGLQFVPELKEFTAKLRKELVETSEVRKAVSIETALEHKVVNGNSADAAYAQVEIQPRANIQLDFPELKPYKQVKQIAPAELEGLLDLERVIVVTGFAEVGPWGSARTRWEMEAFGEFSLEGCVEMAWIMGFISYHNGNLKGRPYTGWVDSKTKEPVDDKDVKAKYETSILEHSGIRLIEPELFNGYNPEKKEMIQEVIVEEDLEPFEASKETAEQFKHQHGDKVDIFEIPETGEYSVKLLKGATLYIPKALRFDRLVAGQIPTGWNAKTYGISDDIISQVDPITLFVLVSVVEAFIASGITDPYEMYKYVHVSEVGNCSGSGMGGVSALRGMFKDRFKDEPVQNDILQESFINTMSAWVNMLLISSSGPIKTPVGACATSVESVDIGVETILSGKARICIVGGYDDFQEEGSFEFGNMKATSNTLEEFEHGRTPAEMSRPATTTRNGFMEAQGAGIQIIMQADLALKMGVPIYGIVAMAATATDKIGRSVPAPGKGILTTAREHHSSVKYASPNLNMKYRKRQLVTREAQIKDWVENELEALKLEAEEIPSEDQNEFLLERTREIHNEAESQLRAAQQQWGNDFYKRDPRIAPLRGALATYGLTIDDLGVASFHGTSTKANDKNESATINEMMKHLGRSEGNPVIGVFQKFLTGHPKGAAGAWMMNGALQILNSGIIPGNRNADNVDKILEQFEYVLYPSKTLKTDGVRAVSITSFGFGQKGGQAIVVHPDYLYGAITEDRYNEYVAKVSAREKSAYKFFHNGMIYNKLFVSKEHAPYTDELEEDVYLDPLARVSKDKKSGSLTFNSKNIQSKDSYINANTIETAKMIENMTKEKVSNGGVGVDVELITSINVENDTFIERNFTPQEIEYCSAQPSVQSSFAGTWSAKEAVFKSLGVKSLGGGAALKDIEIVRVNKNAPAVELHGNAKKAAEEAGVTDVKVSISHDDLQAVAVAVSTKK

stoichiometry N [3]: 1
B2: FAS α subunit, untagged, of the mature FAS (natural protein)
chain: MKPEVEQELAHILLTELLAYQFASPVRWIETQDVFLKDFNTERVVEIGPSPTLAGMAQRTLKNKYESYDAALSLHREILCYSKDAKEIYYTPDPSELAAKEEPAKEEAPAPTPAASAPAPAAAAPAPVAAAAPAAAAAEIADEPVKASLLLHVLVAHKLKKSLDSIPMSKTIKDLVGGKSTVQNEILGDLGKEFGTTPEKPEETPLEELAETFQDTFSGALGKQSSSLLSRLISSKMPGGFTITVARKYLQTRWGLPSGRQDGVLLVALSNEPAARLGSEADAKAFLDSMAQKYASIVGVDLSSAASASGAAGAGAAAGAAMIDAGALEEITKDHKVLARQQLQVLARYLKMDLDNGERKFLKEKDTVAELQAQLDYLNAELGEFFVNGVATSFSRKKARTFDSSWNWAKQSLLSLYFEIIHGVLKNVDREVVSEAINIMNRSNDALIKFMEYHISNTDETKGENYQLVKTLGEQLIENCKQVLDVDPVYKDVAKPTGPKTAIDKNGNITYSEEPREKVRKLSQYVQEMALGGPITKESQPTIEEDLTRVYKAISAQADKQDISSSTRVEFEKLYSDLMKFLESSKEIDPSQTTQLAGMDVEDALDKDSTKEVASLPNKSTISKTVSSTIPRETIPFLHLRKKTPAGDWKYDRQLSSLFLDGLEKAAFNGVTFKDKYVLITGAGKGSIGAEVLQGLLQGGAKVVVTTSRFSKQVTDYYQSIYAKYGAKGSTLIVVPFNQGSKQDVEALIEFIYDTEKNGGLGWDLDAIIPFAAIPEQGIELEHIDSKSEFAHRIMLTNILRMMGCVKKQKSARGIETRPAQVILPMSPNHGTFGGDGMYSESKLSLETLFNRWHSESWANQLTVCGAIIGWTRGTGLMSANNIIAEGIEKMGVRTFSQKEMAFNLLGLLTPEVVELCQKSPVMADLNGGLQFVPELKEFTAKLRKELVETSEVRKAVSIETALEHKVVNGNSADAAYAQVEIQPRANIQLDFPELKPYKQVKQIAPAELEGLLDLERVIVVTGFAEVGPWGSARTRWEMEAFGEFSLEGCVEMAWIMGFISYHNGNLKGRPYTGWVDSKTKEPVDDKDVKAKYETSILEHSGIRLIEPELFNGYNPEKKEMIQEVIVEEDLEPFEASKETAEQFKHQHGDKVDIFEIPETGEYSVKLLKGATLYIPKALRFDRLVAGQIPTGWNAKTYGISDDIISQVDPITLFVLVSVVEAFIASGITDPYEMYKYVHVSEVGNCSGSGMGGVSALRGMFKDRFKDEPVQNDILQESFINTMSAWVNMLLISSSGPIKTPVGACATSVESVDIGVETILSGKARICIVGGYDDFQEEGSFEFGNMKATSNTLEEFEHGRTPAEMSRPATTTRNGFMEAQGAGIQIIMQADLALKMGVPIYGIVAMAATATDKIGRSVPAPGKGILTTAREHHSSVKYASPNLNMKYRKRQLVTREAQIKDWVENELEALKLEAEEIPSEDQNEFLLERTREIHNEAESQLRAAQQQWGNDFYKRDPRIAPLRGALATYGLTIDDLGVASFHGTSTKANDKNESATINEMMKHLGRSEGNPVIGVFQKFLTGHPKGAAGAWMMNGALQILNSGIIPGNRNADNVDKILEQFEYVLYPSKTLKTDGVRAVSITSFGFGQKGGQAIVVHPDYLYGAITEDRYNEYVAKVSAREKSAYKFFHNGMIYNKLFVSKEHAPYTDELEEDVYLDPLARVSKDKKSGSLTFNSKNIQSKDSYINANTIETAKMIENMTKEKVSNGGVGVDVELITSINVENDTFIERNFTPQEIEYCSAQPSVQSSFAGTWSAKEAVFKSLGVKSLGGGAALKDIEIVRVNKNAPAVELHGNAKKAAEEAGVTDVKVSISHDDLQAVAVAVSTKK

fold enrichment in footprints [4]: ≥ 30 fold
B3: nascent GluRS (ribosome-nascent chain complexes) (natural protein)
chain: MPSTLTINGKAPIVAYAELIAARIVNALAPNSIAIKLVDDKKAPAAKLDDATEDVFNKITSKFAAIFDNGDKEQVAKWVNLAQKELVIKNFAKLSQSLETLDSQLNLRTFILGGLKYSAADVACWGALRSNGMCGSIIKNKVDVNVSRWYTLLEMDPIFGEAHDFLSKSLLELKKSANVGKKKETHKANFEIDLPDAKMGEVVTRFPPEPSGYLHIGHAKAALLNQYFAQAYKGKLIIRFDDTNPSKEKEEFQDSILEDLDLLGIKGDRITYSSDYFQEMYDYCVQMIKDGKAYCDDTPTEKMREERMDGVASARRDRSVEENLRIFTEEMKNGTEEGLKNCVRAKIDYKALNKTLRDPVIYRCNLTPHHRTGSTWKIYPTYDFCVPIVDAIEGVTHALRTIEYRDRNAQYDWMLQALRLRKVHIWDFARINFVRTLLSKRKLQWMVDKDLVGNWDDPRFPTVRGVRRRGMTVEGLRNFVLSQGPSRNVINLEWNLIWAFNKKVIDPIAPRHTAIVNPVKIHLEGSEAPQEPKIEMKPKHKKNPAVGEKKVIYYKDIVVDKDDADVINVDEEVTLMDWGNVIITKKNDDGSMVAKLNLEGDFKKTKHKLTWLADTKDVVPVDLVDFDHLITKDRLEEDESFEDFLTPQTEFHTDAIADLNVKDMKIGDIIQFERKGYYRLDALPKDGKPYVFFTIPDGKSVNKYGAKK
